Experimental data from the supplement of paper PMC10567573.

B1: SLC2A12 (parent)
chain: LTLVFFVQITGQPNILFYASTVLK
B2: CAMK2B (parent)
chain: YQQIKAGAYDFPSPEWDTVTPEAK

Variants of: B1
Assay: protein stability index of a GFP-peptide fusion (GPS, HEK-293T) (PSI 1-6); higher = more stable
Conditions: c terminus: a fixed tail appended
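Also: lentivirally expressed fusions sorted by FACS into six bins by GFP to DsRed ratio, PSI derived from sequencing read proportions per bin multiplied by bin number.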

Protein stability index of substitutions, site by site:
T21: C 3.33 | P 3.23 | M 3.09 | W 3.97 | S 3.13 | N 3.31 | E 2.46 | F 3.22 | I 3.71 | L 2.38 | D 3.9 | Q 2.97
A19: M 2.4 | R 2.55 | K 2.5 | V 2.66 | T 2.42 | L 3.37
Y18: I 2.47 | S 3.38 | T 2.31 | L 3.04 | K 2.6 | D 2.93 | P 4.25 | A 2.49 | E 2.04 | F 3.63 | M 2.05 | N 1.59
L23: W 1.83 | V 2.58 | T 3.09 | R 3.18 | N 2.74 | Q 3.05 | Y 3.92 | H 2.38 | E 2.83 | M 3.81 | S 3.26
S20: M 2.78 | A 2.52 | Y 3.22 | K 3.97 | Q 2.48 | F 4.03 | T 4.03 | P 2.92 | G 3.23 | E 3.34 | I 4.31 | N 2.84 | W 4.76 | C 2.27
V22: C 2.2 | S 1.93 | A 4.16 | P 3.9 | L 2.28 | Y 3.57 | D 3.37 | F 2.78 | Q 4.34 | R 3.38 | I 3.81 | N 2.78
F17: W 3 | Y 2.63
K24: V 3.5 | T 2.2 | Y 4.23 | H 2.21 | W 2.76 | D 2.73 | E 3.5 | P 1.8 | N 4.33 | S 3.98 | A 2.9 | L 1.12 | F 3.17 | Q 4.06 | I 2.92

Variants of: B2
Assay: as above
Conditions: c terminus: a fixed tail appended

Protein stability index: each site, then its substitutions
A6: E 4.41 | P 3.82 | K 3.22 | H 3.24 | F 2.9 | M 3.96 | G 3.13 | I 2.77 | R 2.38 | S 3.59 | C 3.37 | N 3.44 | D 4.28 | V 3.12 | W 2.28 | L 3.09 | Y 3.16 | Q 3.92 | T 3.62
Y9: D 4.73 | K 3.99 | I 3.9 | G 4.6 | Q 4.48 | V 4.13 | L 4.04 | A 4.37 | P 4.17 | T 4.23 | S 4.3 | H 4.14 | F 3.5 | W 2.48 | R 3.64 | C 3.79 | E 4.71 | M 4.1 | N 4.26
Q2: M 3.95 | L 3.35 | K 3.8 | N 4.51 | D 4.78 | I 2.28 | E 4.64 | A 3.12 | P 3.67 | T 3.67 | Y 3.6 | W 3.06 | G 3.7 | V 1.8 | C 2.87 | S 4.34 | H 2.88 | F 3.46 | R 4.06
Q3: D 3.94 | Y 2.6 | S 2.8 | E 4.59 | R 2.22 | L 3.38 | N 3.62 | V 3.44 | G 2.68 | F 2.55 | I 3.15 | K 2.75 | H 3.28 | P 3.03 | M 2.88 | A 2.11 | W 2.09 | T 3.28 | C 2.17
Y1: I 3.89 | F 3.33 | M 5.04 | E 5.13 | H 4.58 | D 5.38 | Q 4.92 | C 4.45 | S 4.94 | K 4.88 | P 4.94 | W 4.15 | G 5.11 | V 4.69 | T 4.88 | L 4.75 | R 4.83 | N 5.21 | A 4.94
S13: A 3.24 | M 2.75 | R 3.29 | K 3.4 | L 3.29 | N 3.69 | G 4.11 | D 4.08 | Y 3.6 | V 3.18 | C 2.74 | T 3.69 | H 3.25 | Q 2.9 | E 4.12 | I 3.37 | F 2.79 | W 2.8
A8: I 3.05 | D 3.91 | W 2.26 | V 3.16 | S 3.75 | M 3.44 | K 3.66 | C 3.44 | R 3.14 | G 3.61 | P 3.02 | E 3.95 | N 3.95 | F 2.84 | Y 3.31 | H 3.79 | L 3.03 | Q 3.68 | T 3.44
K5: G 3.88 | M 4.04 | R 3.34 | T 4 | Q 3.77 | N 3.92 | Y 3.11 | F 3.12 | W 1.95 | V 3.77 | D 4.39 | C 3.58 | A 4.07 | H 3.46 | E 4.84 | I 3.35 | L 3.6 | S 3.64 | P 3.71
F11: V 4.15 | Q 4.24 | H 4.2 | L 3.97 | W 3.15 | D 4.63 | Y 3.95 | A 4.58 | K 3.91 | P 4.67 | T 4.43 | I 3.8 | M 4.04 | C 4 | S 4.36 | E 4.72 | G 4 | R 3.73 | N 4.37
D10: L 2.4 | R 2.05 | A 2.72 | C 2.25 | N 2.52 | Q 2.67 | I 1.99 | M 2.7 | F 1.98 | S 2.39 | V 2.41 | Y 1.79 | P 2.7 | H 2.54 | T 2.61 | E 3.55 | W 2.83 | K 2.25 | G 2.23
P12: M 3.08 | E 4.09 | C 2.76 | R 2.34 | N 3.94 | V 2.81 | Y 3.71 | F 2.25 | W 3.5 | I 3.21 | G 3.71 | A 2.94 | L 2.9 | K 3.3 | T 3.36 | Q 4 | S 3.29 | D 4.01 | H 3.21
I4: M 3.66 | P 3.58 | Y 3.21 | H 3.56 | R 3.06 | K 3.42 | Q 3.78 | D 4.32 | E 4.26 | G 3.34 | A 3.46 | V 3.93 | S 3.02 | N 3.41 | C 3.09 | L 3.81 | T 3.58 | F 3.19 | W 2.05
P14: D 4.42 | E 4.47 | A 3.96 | C 3.45
G7: V 3.53 | R 2.96 | F 1.86 | P 3.86 | C 2.77 | W 2.31 | S 3.78 | K 3.27 | L 3 | I 3.25 | E 4.23 | T 3.83 | M 3.23 | A 3.79 | N 3.77 | Q 3.92 | D 3.99 | Y 1.87 | H 3.69
